The source of these data is paper PMC9060444 (2022).

Assay [1] concerns the target human complement C1 complex (human) (UniProt P02745).
Assay [2] concerns the target human C1r enzyme (activated C1r) (human). Kind of assay: ELISA; ELISA-type binding assay: GST-fusion proteins on wells coated with human C1 complex, C1q, C1r enzyme or C1s enzyme; apparent KD by nonlinear regression (GraphPad Prism). For orientation: An ELISA detects its analyte on a solid surface through an enzyme-linked reagent.
Assay [3] has as its target human complement C1 complex (human) (UniProt P02745). The assay is described as above.
Assay [4] concerns the target human C1s enzyme (activated C1s) (human). The description is as above.
For assay [5], the target named is GST-ElpQ (B. burgdorferi strain B31). The assay is described as follows: SPR; Biacore T200; GST-ElpB or GST-ElpQ immobilised on the sensor chip; C1 complex (twofold series 0.6 to 150 nM), C1r or C1s enzyme or proenzyme injected as analyte; steady-state affinity fits; triplicate. (In general: In SPR one partner is held on a chip, and binding of the other changes the refractive index at the surface.)

In assay [6] the target is GST-ElpB (B. burgdorferi strain B31). The description is as above.
Assay [7] concerns the target human C1s enzyme (activated C1s) (human).
The target in assay [8] is T1, human C1s enzyme (activated C1s) (human).
T1 chain 1: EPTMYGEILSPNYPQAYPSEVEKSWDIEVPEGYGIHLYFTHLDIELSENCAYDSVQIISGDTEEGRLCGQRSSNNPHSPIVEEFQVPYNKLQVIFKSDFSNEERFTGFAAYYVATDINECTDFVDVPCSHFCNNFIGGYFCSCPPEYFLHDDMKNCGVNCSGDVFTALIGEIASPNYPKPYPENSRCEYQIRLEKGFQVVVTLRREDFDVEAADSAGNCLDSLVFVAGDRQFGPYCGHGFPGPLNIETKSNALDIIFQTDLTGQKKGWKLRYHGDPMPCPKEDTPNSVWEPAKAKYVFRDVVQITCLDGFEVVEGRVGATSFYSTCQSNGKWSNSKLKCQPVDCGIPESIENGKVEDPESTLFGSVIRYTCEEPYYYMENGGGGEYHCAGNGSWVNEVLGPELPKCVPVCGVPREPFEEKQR
T1 chain 2: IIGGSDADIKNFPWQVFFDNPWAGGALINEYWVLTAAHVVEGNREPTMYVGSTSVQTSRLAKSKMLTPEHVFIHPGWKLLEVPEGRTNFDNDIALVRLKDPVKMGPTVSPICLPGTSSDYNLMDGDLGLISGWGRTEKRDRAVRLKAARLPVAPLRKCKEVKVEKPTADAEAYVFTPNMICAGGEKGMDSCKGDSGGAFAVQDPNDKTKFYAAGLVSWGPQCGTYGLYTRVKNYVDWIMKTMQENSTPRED
Kind of assay: SPR.

In the case of BBK32-C (domain or fragment), the IC50 of inhibition of C4b deposition from normal human serum on IgM-coated wells (ELISA); by the table's footnote based on the non-GST-tagged BBK32-C construct in assay [1] turned out to be 18 nM.
As to “GST-BBK32 (from UniProt O50835 1-354) (natural protein)”, in assay [1], the IC50 of inhibition of C3b deposition from normal human serum on IgM-coated wells (ELISA) amounted to 29 nM, the IC50 of inhibition of C5b-9 deposition from normal human serum on IgM-coated wells (ELISA) came out at 100 nM and the IC50 of inhibition of classical-pathway lysis of antibody-sensitised sheep erythrocytes by normal human serum stood at 79 nM.
Take GST-ElpB (natural protein): in assay [1], the IC50 of inhibition of C3b deposition from normal human serum on IgM-coated wells (ELISA) turned out to be 570 nM, the IC50 of inhibition of C4b deposition from normal human serum on IgM-coated wells (ELISA) amounted to 330 nM, the IC50 of inhibition of C5b-9 deposition from normal human serum on IgM-coated wells (ELISA) came out at 300 nM and the IC50 of inhibition of classical-pathway lysis of antibody-sensitised sheep erythrocytes by normal human serum worked out at 1600 nM. Moreover, in assay [2], the Kd was found to be 41 nM. In addition, the Kd in assay [3] stood at 3.4 nM. Besides, the Kd in assay [4] is 6.7 nM.
GST-ElpQ (natural protein): in assay [1], the IC50 of inhibition of C3b deposition from normal human serum on IgM-coated wells (ELISA) amounted to 450 nM, the IC50 of inhibition of C4b deposition from normal human serum on IgM-coated wells (ELISA) stood at 260 nM, the IC50 of inhibition of C5b-9 deposition from normal human serum on IgM-coated wells (ELISA) is 1000 nM and the IC50 of inhibition of classical-pathway lysis of antibody-sensitised sheep erythrocytes by normal human serum is 1500 nM. For the same molecule, the Kd in assay [2] was found to be 11 nM. Further, the Kd in assay [3] turned out to be 3.8 nM. Besides, the Kd in assay [4] came out at 4.7 nM.
As for human C1r enzyme (activated C1r), the Kd in assay [5] amounted to 97 nM; in assay [6] it was 100 nM.
As to human C1s enzyme (activated C1s), the figures for the Kd in assay [5] and in assay [6] were 4.5 nM and 3.9 nM, respectively.
Regarding human C1s proenzyme, the Kd was determined as 170 nM in assay [5] and 270 nM in assay [6].
Molecule “human complement C1 complex (from UniProt P02745 23-245; P02746 28-253; P02747 29-245)” showed a Kd in assay [6] of 5.6 nM.
tagless ElpB (natural protein): the IC50 of inhibition of the cleavage of C2 by C1s enzyme (SDS/PAGE) in assay [7] is 870 nM.
For tagless ElpQ (natural protein), in assay [7], the IC50 of inhibition of the cleavage of C2 (685 nM) by C1s enzyme (6.25 nM), SDS/PAGE densitometry of C2b, ElpQ 16 to 0.13 uM, 1 h at 37 C amounted to 1400 nM and the IC50 of inhibition of the cleavage of C4 (616 nM) by C1s enzyme (6.25 nM), SDS/PAGE densitometry of C4 alpha', ElpQ 25 to 0.20 uM, 1 h at 37 C was 11000 nM.

B1: tagless ElpQ (natural protein)
chain: CKNFATGKDIKQNSEGKIKGFVNKILDPVKDKIASSGTKVDEVAKKLQEEEKEELMQGDDPNGSGINPPPVLPENIHNNALVLKAIEQSDGQQEKKVEEAEAKVEENKEKQENTEENIKEKEIIDEQNKQELAKAKEEEQQKEQKRHQEEQQRKAKAEKEKREREEAEQQKRQQEEEEKRQVDNQIKTLIAKIDEINENIDVIKWQTTVGPQGVIDRITGPVYDDFTNGNNSIRETWEGLEEESEDEGLGKLLKELSDARDALRTKLNEGNKPYTGYEEPKLKESVNVSEIKEDLEKLKSKLEEVKKYLKDSSKFEEIKGYISDSQ
In assay [8], B1 returned a Kd of 15 nM.

B2: GST-ElpQ (natural protein)
chain: CKNFATGKDIKQNSEGKIKGFVNKILDPVKDKIASSGTKVDEVAKKLQEEEKEELMQGDDPNGSGINPPPVLPENIHNNALVLKAIEQSDGQQEKKVEEAEAKVEENKEKQENTEENIKEKEIIDEQNKQELAKAKEEEQQKEQKRHQEEQQRKAKAEKEKREREEAEQQKRQQEEEEKRQVDNQIKTLIAKIDEINENIDVIKWQTTVGPQGVIDRITGPVYDDFTNGNNSIRETWEGLEEESEDEGLGKLLKELSDARDALRTKLNEGNKPYTGYEEPKLKESVNVSEIKEDLEKLKSKLEEVKKYLKDSSKFEEIKGYISDSQ
B2: in assay [8], the Kd worked out at 16.5 nM.
